Experiments:
[1] = biological target: HIV gp140 (CM244, subtype AE, R5-tropic) expressed by HEK 293 D371 cells (HIV (CM244, subtype AE)); assay: cell-based or functional assay
[2] = biological target: HIV gp160 (HxB2) expressed by tetracycline-induced Jurkat 522 FY cells (HIV (HxB2), UniProt P04578 33-856); assay: cell-based or functional assay

Row | Binder | EC50 (ng/mL) of CD8-mediated cytotoxicity, pan T cells, 24 h [1] [ng/mL] | EC50 (ng/mL) of CD8-mediated cytotoxicity, pan T cells, 24 h [2] [ng/mL]
1 | anti-CD3 × anti-HIV env bispecific diabody (anti-HIV env antibody 7B2 and humanized anti-CD3 Antibody 2 binding domains) (bispecific antibody) chain 1: DIVMTQSPDSLAVSPGERATIHCKSSQTLLYSSNNRHSIAWYQQRPGQPPKLLLYWASMRLSGVPDRFSGSGSGTDFTLTINNLQAEDVAIYYCHQYSSHPPTFGHGTRVEIKGGGSGGGGEVQLVESGGGLVQPGGSLRLSCAASGFTFSTYAMNWVRQAPGKGLEWVGRIRSKYNNYATYYADSVKGRFTISRDDSKNSLYLQMNSLKTEDTAVYYCVRHGNFGNSYVSWFAYWGQGTLVTVSSGGCGGGEVAALEKEVAALEKEVAALEKEVAALEK chain 2: QAVVTQEPSLTVSPGGTVTLTCRSSTGAVTTSNYANWVQQKPGQAPRGLIGGTNKRAPWTPARFSGSLLGGKAALTITGAQAEDEADYYCALWYSNLWVFGGGTKLTVLGGGGSGGGGQVQLVQSGGGVFKPGGSLRLSCEASGFTFTEYYMTWVRQAPGKGLEWLAYISKNGEYSKYSPSSNGRFTISRDNAKNSVFLQLDRLSADDTAVYYCARADGLTYFSELLQYIFDLWGQGARVTVSSGGCGGGKVAALKEKVAALKEKVAALKEKVAALKE | 0.006 | 0.49
2 | anti-CD3 × anti-HIV gp120 bispecific diabody (anti-HIV gp120 antibody A32 and humanized anti-CD3 Antibody 2 binding domains) (bispecific antibody) chain 1: QSALTQPPSASGSPGQSVTISCTGTSSDVGGYNYVSWYQHHPGKAPKLIISEVNNRPSGVPDRFSGSKSGNTASLTVSGLQAEDEAEYYCSSYTDIHNFVFGGGTKLTVLGGGSGGGGEVQLVESGGGLVQPGGSLRLSCAASGFTFSTYAMNWVRQAPGKGLEWVGRIRSKYNNYATYYADSVKGRFTISRDDSKNSLYLQMNSLKTEDTAVYYCVRHGNFGNSYVSWFAYWGQGTLVTVSSGGCGGGEVAALEKEVAALEKEVAALEKEVAALEK chain 2: QAVVTQEPSLTVSPGGTVTLTCRSSTGAVTTSNYANWVQQKPGQAPRGLIGGTNKRAPWTPARFSGSLLGGKAALTITGAQAEDEADYYCALWYSNLWVFGGGTKLTVLGGGGSGGGGQVQLQESGPGLVKPSQTLSLSCTVSGGSSSSGAHYWSWIRQYPGKGLEWIGYIHYSGNTYYNPSLKSRITISQHTSENQFSLKLNSVTVADTAVYYCARGTRLRTLRNAFDIWGQGTLVTVSSGGCGGGKVAALKEKVAALKEKVAALKEKVAALKE | 0.024 | 0.75
